Data on one substance can be found in publication PMC2668148.

In general, Km refers to the substrate concentration at which the rate is half of its maximum. For orientation: Vmax means the top rate of the reaction or transport when substrate is in excess.

In this data set the test system is N[C@@H](CCC(=O)Nc1ccc([N+](=O)[O-])cc1)C(=O)O. Put plainly: purified protein. Conditions: apparent constant; hydrolysis.

For “HpGT (Helicobacter pylori gamma-glutamyltranspeptidase) (Helicobacter pylori 26695)”, the Km came to 22.1 ± 1.4 µM and the maximal velocity (Vmax) turned out to be 5.18 µmol/min/mg.
